The record followed here is the nanobody polyreactivity screen of Harvey et al. (2022).

This series is described as follows: yeast display, Sf9 membrane polyspecificity reagent, FACS + sequencing; frameworks hold sequencing errors. Put shortly: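 Nanobodies came from a synthetic yeast display library in Saccharomyces cerevisiae BJ5465, induced with galactose for 36–48 hours and stained for 1 hour at 4 °C with 10% biotinylated, detergent-solubilized Sf9 membrane reagent. Cells were enriched on streptavidin microbeads and then FACS-sorted, with low and high (top ~1%) gates set on anti-HA fluorescence for expression and streptavidin fluorescence for reagent binding. Each polyreactivity label reflects the gate a clone came from. Genes were amplified by colony PCR, sequenced by MiSeq 2 × 250 and filtered by CDR length.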
For “QVQLVESGAGLVQAGGSLRLCCAASGRIFDWYVMGWYRQAPGKEWELVAAINSGVSTKYADSVKGRFTISRDNAKNTVYLQMNSLKPEDTAVYYCAAQSFSDYRRTGRKSSYYYWGQVTQVTVSS”, the “polyreactivity (PSR sort gate)” value is given as “low polyreactivity”.

In the case of “QVQLVESGAGLVQAGGSLRLICAASGLTFIYYAMGWYRQAPGKERELVAAISVSGGSTYYADSVKGRFTISRDNAKNTVYLQMNRLQREDTAVYYCAADWLVHKPRYQYSFDFWGQVTQVTVSS”, the “polyreactivity (PSR sort gate)” value is “low polyreactivity”.

For “QVQLVESGAGLVQAGGSLRLSCAASGFIFRQYAMGWYRQAPGQERELVAAISWSGGSTYYADSVKGRFTISRDNAKNTVYLQKNSLKPEDTAVYYCNVLTPPTDYDYWGQGTQVTVSS”, the “polyreactivity (PSR sort gate)” value is on record as “high polyreactivity”.

With “QVQLVESGAGLVQAGGSLRLSCAASGFIFVKYAMGWYRQAPGKERELVAAISRSGGRTYYADSVKGRFTISRDNAKNNVYLQMNSLKPEDTAVYYCATDYYEDWRGYEDYWYRPYDYWGQGTQVTVSS”, the “polyreactivity (PSR sort gate)” value was “high polyreactivity”.

Turning to “QVQLVESGAGLVQAGGSLRLSCAASGFIFYYYAMGRYRPAPGKERELVAAIDSSGGDTYFADSVKGRFSISRDHAKNTVYLQMNSLKPEDTAVYYCNARQRLISLYGNRLTYGYWGQGTQVTVSS”, the “polyreactivity (PSR sort gate)” value is “high polyreactivity”.

Regarding “QVQLVESGAGLVQAGGSLRLSCAASGFTFDQYAMGWYRPATGKERELVAGISWGGGTTYYADSVKGRFTISRDNAKNTVYLHMNSLKPEDTAVYYCAAVRPGYPYYGSDYWGPGTQVTVSS”, the “polyreactivity (PSR sort gate)” value is on record as “low polyreactivity”.

On to “QVQLVESGAGLVQAGGSLRLSCAASGFTFFGDYAMGWYRQAPGKERELVAAIDWSGGTTYYADSVKGRFTISRDNAKNTVYLQMNSLKPEDTAVYYCARRYYYSYPPQEDDYWGQGTQVTVSS”, for which the “polyreactivity (PSR sort gate)” value was “high polyreactivity”.

“QVQLVESGAGLVQAGGSLRLSCAASGFTFPYYAMGWYRQAPGKERELVAAINYSGSSTDYADSVKGRFTISRDNAKNTVYLQMNSLKPEDTAVYYCAATPAYYYQAVTEDDYWGQGTHVTVSS”: the “polyreactivity (PSR sort gate)” value is “high polyreactivity”.

As to “QVQLVESGAGLVQAGGSLRLSCAASGFTFSRNAMGWYRPAPGKERELVASISGRGGRTYYADSVKGRFTISRDNAKKTVYLQMNSLKPEATAVYFCAARWRQRKSVRYGQQGYDYWGQGTQVTVSS”, the “polyreactivity (PSR sort gate)” value is “high polyreactivity”.

With “QVQLVESGAGLVQAGGSLRLSCAASGFTFYDYAMGWYRQAPGKERELVAAISRGGGSTYYADSVKGRFTISRDNAKNTVYLQMNSLKPEDTAVYYCNAALTRVSRFWGGDYYYWGQGTQVTVSS”, the “polyreactivity (PSR sort gate)” value is given as “high polyreactivity”.

For the sequence “QVQLVESGAGLVQAGGSLRLSCAASGGTFLYYAMGWYRQAPGKERELVAVINSNGGSTYYADSVKGRFTISRDNAKNTVYLQMNSLKPEDTAVYYCAADYQSYVYIGYGYWGQGTQVTVSS”, the “polyreactivity (PSR sort gate)” value is “low polyreactivity”.

As to “QVQLVESGAGLVQAGGSLRLSCAASGIIFDWYTMGWYRQAPGKERELVAAISWRGGRTYYADSVKGRFTISRDNAKNTVYLQMNSLKPEDTAVYYCAAEAPVQPFYVFNTGIYELDYWGQGTQVTVSS”, the “polyreactivity (PSR sort gate)” value was “low polyreactivity”.

Take “QVQLVESGAGLVQAGGSLRLSCAASGIISYRNGMGWYRQAPGKERELVASISKRADSTYYADSVKGGFTLSRDNAKNTVYLQMNSLKPEDTAVYYCAANFRDWHRYYPAGYLRRGYWGQGTQVTVSS”: the “polyreactivity (PSR sort gate)” value was “high polyreactivity”.

Turning to “QVQLVESGAGLVQAGGSLRLSCAASGNTFYQYAMGWYRQAPGKERELVAAIDWSGGSTYADSVKGRFTISRDNAKNTVYLQMNSLKPEDTAVYYCEKYTYDYWGQGTQVTVSS”, the “polyreactivity (PSR sort gate)” value is reported as “low polyreactivity”.

As to “QVQLVESGAGLVQAGGSLRLSCAASGRTFRYSAMGWYRQAPGKERELVAAISSRGNTYYADSVKGRFTISRDNAKNTVYLQMNTLKPEDTAVYYCAAYVYRVQYDFDYWGQGTQVTVSS”, the “polyreactivity (PSR sort gate)” value is on record as “high polyreactivity”.

On to “QVQLVESGAGLVQAGGSLRLSCAASGRTFYNNAMGWYRQAPGKERELVAAISQRTGRTYYADSVKGRFTISRDNAKNTVYLQMNSLKPEDTAVYYCAARTLSYEYNYWGQGTQVTVSS”, for which the “polyreactivity (PSR sort gate)” value is given as “high polyreactivity”.

On to “QVQLVESGAGLVQAGGSLRLSCAASGRTFYYYAMGWYRQAPGKERELVAAISSNGGSTYADSVKGRFTISRDNAKNTVYLQMNSLKPEDTAVYYCAAEPWWQEGDYWGQGTQVTVSS”, for which the “polyreactivity (PSR sort gate)” value is recorded as “high polyreactivity”.

Regarding “QVQLVESGAGLVQAGGSLRLSCAASGSIFVYNDMGWYRQAPGKERELVAAITSSGGSTYYADSVKGRFTISRDNAKKTVYLQMNSLKPEDTAVYYCNVWDRPPTGYDYWGQGTQVTVSS”, the “polyreactivity (PSR sort gate)” value is recorded as “low polyreactivity”.

Consider “QVQLVESGAGLVQAGGSLRLSCAASGSIFWYNAMGWYRQAPGKERELVAAITSGGTTSYADSVKGRFTISRDNAKNTVYLQMNSLKPEDTAVYYCNADAVPFPTLVTYLYDYWGQGTQVSVSS”, for which the “polyreactivity (PSR sort gate)” value is reported as “low polyreactivity”.

Regarding “QVQLVESGAGLVQAGGSLRLSCAASGSIFYVYAMGWYRQAPGKERELVAAISSSAGSTYYADSVKGRFTISRDNAKNTVYLQMNSLKPEDTAVYYCAAKVRYSLRKYYYWGQGTQVTVSS”, the “polyreactivity (PSR sort gate)” value is given as “high polyreactivity”.

In the case of “QVQLVESGAGLVQAGGSLRLSCAASGSTFAINAMGWYRQAPGKERELVAAISSRGSTNYADSVKGRFTISRDNAKNTVYLQMNSLKPEDTAVYYCAADRVWGTPQAYVPSQFDYWGQGTQVTVSS”, the “polyreactivity (PSR sort gate)” value is recorded as “low polyreactivity”.

As for “QVQLVESGAGLVQAGGSLRLSCAASGSTFDSYVMGWYRQAPGKERDLVAAISRRGGSTYYADSVKGRFTISRDNAKNSVYLQMNSLKPEDTAVYYCARTVGYRTLLESDSWGQGTQVTVSS”, the “polyreactivity (PSR sort gate)” value is “high polyreactivity”.

Turning to “QVQLVESGAGLVQAGGSLRLSCAASGSTFGINAMGWYRQAHGKEREFVASISWSTGTKYYADSVKGRFTISRDNAKNTVYLQMNSLKAEDTAVYYCAAVCSRFYGLPRYYYCGQGTQVTVSS”, the “polyreactivity (PSR sort gate)” value is listed as “high polyreactivity”.

“QVQLVESGAGLVQAGGSLRLSCAASGSTFPFYDMGWYRQAPGKEREFVAVISSSGGSTYYADSVKGRFTISRDNAKNTVYLQMNSLKPEDTAVYYCARRYPGRWYDYWGQGTQVTVSS”: the “polyreactivity (PSR sort gate)” value is recorded as “high polyreactivity”.

Consider “QVQLVESGAGLVQAGGSLRLSCAASGSTFSHNAMGWYRQEPGKESELVAAISWSGGGTYADSVKGRFTISRDNAKNTVYLQMNSLIPEDTAVYYCNKVSYPSTSSSWFDYWGKGTQVTVSS”, for which the “polyreactivity (PSR sort gate)” value is “low polyreactivity”.

With “QVQLVESGAGLVQAGGSLRLSCAASGSTFYGYGMGWYRQAPGKERELVAAITGSGDTTYYADSVKGRFTISRDNAKNTVYLQMNSLKPEDTAVYYCNARWHAEYDYWGQGTQVTVSS”, the “polyreactivity (PSR sort gate)” value is listed as “low polyreactivity”.

Consider “QVQLVESGAGLVQAGGSLRLSCAPSGRTFGYNAMGWYRQAPGKERELVATISSSTVSTSYADSVKGRFTISRDNAKNTVYLQMNSLKPEDTAVYYCNARSRVSPTERVPYDSWGHGTQVTVSS”, for which the “polyreactivity (PSR sort gate)” value is “low polyreactivity”.

For the sequence “QVQLVESGAGLVQAGGSLRLSCAPSGSIFWWYAMVWYRQAPGKERELVAVISGGTSTYYADSVKGRFTISRDNAKNTVYLQMNSLKPEDTAVYYCNADVFSKVSYFRYIEYDYWGQGTQVTVSS”, the “polyreactivity (PSR sort gate)” value was “high polyreactivity”.

Take “QVQLVESGAGLVQAGGSLRLSCASSGRTCDFYAMGWYRQAPGKERELVAAISSSCGSTYYADSVKGRFTISRDNAKNTVYLQMNSLKPEDTAVYYCAKDGRVHSPYDYWGQGTQVTVSS”: the “polyreactivity (PSR sort gate)” value is listed as “low polyreactivity”.

Regarding “QVQLVESGAGLVQAGGSLRLSCSASGRTFPGYAMGWYRQAPGKERELVATISSADSTNYADSVKGRFTISRDNGKNTVYLQMNSLKAEDTAVYYCAKRYGRNGAAAQYTGGYRYDYWGQGTQVSVSS”, the “polyreactivity (PSR sort gate)” value is given as “low polyreactivity”.

“QVQLVESGARLVQAGGSLRLSCAASGRTFSTYTMGWYRQAPGKERELVAAITSSGGGTYYADSVKGRFTISRDTAKNTVFLQMNSLKPEDTAVYYCATVRTYRPPVRRGYWGQGTQVTVSS”: the “polyreactivity (PSR sort gate)” value was “high polyreactivity”.

Turning to “QVQLVESGAVLVQAGGSLRLSCAASGGTFSGYTMGWYRQAPGKERELVAAITRSGSSTYYADSVKGRFTISRDNAKHTVYLQMNSLKPEDTAVSYCAATYPTSSSSYYNRYYWGQGTQVTVSS”, the “polyreactivity (PSR sort gate)” value is given as “high polyreactivity”.

In the case of “QVQLVESGEGLVQAGGSLRLSCAASGRTFDRNTMGWYTQAPGKERELVAAISSSGGSTYYADSVKGRFTISRDNAKNTVYLQMNSLKPEDTAVYYCAVRSRQYFRYGYDYWGQGTQVTVSS”, the “polyreactivity (PSR sort gate)” value is “high polyreactivity”.

For the sequence “QVQLVESGEGLVQAGGSLRLSCAASGSTFTYNAMGWYRHAPGKERELVAAIDWDGDTTYYADSVKGRFTISRDNAKNTVYLQMNSLKPEDTAVYYCAARPKYPYYARYDYWGQGTQVTVSS”, the “polyreactivity (PSR sort gate)” value is listed as “high polyreactivity”.

For the sequence “QVQLVESGGAFVQAGGTLRLICAASGRIFLYYAMGWYRHAPGKERELFAAIRISGGSTYYADSVKGRFTISRDNAKNTVYLQMNSLNAVDPAVYYCNADHKTIYPKYRGRFYYWGQGTQVTVTS”, the “polyreactivity (PSR sort gate)” value is listed as “high polyreactivity”.

On to “QVQLVESGGAIVQAGGSLRLICAASGSIFYIYAMGWYRQAPGKERELVASITFSGDITYYADSVKGRFTISRDNAKYTVYLQMNSLKPEDTAVYYCAADYHEQSYAVTYDYWGQGTKVTVSS”, for which the “polyreactivity (PSR sort gate)” value is “low polyreactivity”.

As to “QVQLVESGGALFQAGGSLRLSCAASGRIFTIYASRWYRQAPGKATELVATISRRGGSTYYADSVKGRFTISRDNAKNNVYLQMNSLKPEVSAVYYCAADSVITWWAYDYWGQGTQVTVSS”, the “polyreactivity (PSR sort gate)” value is recorded as “high polyreactivity”.

As to “QVQLVESGGALVQAGGRLRLSCAASGLTLHRYTMGWYRQAPGKERELVAVITYGGGNTYYADSVKGRFTISRDNAKNTVYLQMNSLKPEDNAVYYCAARYPPFYWYDYWGQGTQVSVSS”, the “polyreactivity (PSR sort gate)” value is recorded as “low polyreactivity”.

On to “QVQLVESGGALVQAGGSIRISCAASGSIFRDYAMGWSRQAPGKERELVAVISIAGRTNYADSVKGRFTISRDNAKNTVYLQMKRLKPEDTAVYYCAADSAWYGYDYWGQGTQVTVSS”, for which the “polyreactivity (PSR sort gate)” value is on record as “low polyreactivity”.

Regarding “QVQLVESGGALVQAGGSLLLSCAASGSIFQPYAMGWYRQAPGKERELVAAITNGGSTYYADSVKGRFTISRDNAKNTVYLQMNSLNPEDTAVYYFAADVQSSHVYDYWGQGTQVTVSS”, the “polyreactivity (PSR sort gate)” value is “low polyreactivity”.
